Data as given in PMC3526301.

Tests used:
[1] = biological target: T1, human alpha-thrombin (Homo sapiens) (UniProt P00734+P00734); experiment: bead-based fluorescence binding; details: 50 mM Tris, 100 mM NaCl, 1 mM MgCl2, 5 mM KCl, 1 mM CaCl2, 0.01% Tween 20, pH 7.5 (selection buffer), 1 h room temperature …
[2] = biological target: T1, human alpha-thrombin (Homo sapiens); experiment: fibrin formation inhibition (OD350); details: 50 mM Tris, 100 mM NaCl, 1 mM MgCl2, 5 mM KCl, 1 mM CaCl2, 0.01% Tween 20, pH 7.5 (selection buffer), 1 h room temperature …

Sequence | fold affinity loss vs TBV-08 (fold lower affinity than TBV-08) [1] | Ki [2]
AGTCCGTGGTAGGGCAGGTTGGGGTGACT [Tasset-29] | 200 | 
GGTTGGTGTGGTTGG [Bock-15] | 300 | 2.61 nM
